Results: patent US20140038900A1 (INSTITUT NATIONAL DE LA SANTE ET DE LA RECHERCHE MEDICALE …, published 2014)

Target: heat-shock protein 70 (HSP70) (UniProt P0DMV8 1-641)
Test: co-immunoprecipitation and Western blot, HCT116 cells
Experimental: Transfected cells were first lysed in lysis buffer (50 mM Hepes (pH 7.6), 150 mM NaCl, 5 mM EDTA and 0.1% NP40) followed by immunoprecipitation using GFP-tag antibody. Immunoprecipitates were separated in a 10% SDS-polyacrylamide gel and then transferred to PVDF membranes using a wet transfer apparatus (BioRad, Hercules, Calif., USA). Membranes were first probed overnight using primary antibodies: HA-tag antibody was from Covance (Eurogentec, Angers, France), 14-3-3 from Santa-Cruz (TebuBio, Le Perray en Yvelines, France) and GFP-tag antibody from Millipore (Molsheim, France).

Chain of heat-shock protein 70 (HSP70) (P0DMV8 whole entry): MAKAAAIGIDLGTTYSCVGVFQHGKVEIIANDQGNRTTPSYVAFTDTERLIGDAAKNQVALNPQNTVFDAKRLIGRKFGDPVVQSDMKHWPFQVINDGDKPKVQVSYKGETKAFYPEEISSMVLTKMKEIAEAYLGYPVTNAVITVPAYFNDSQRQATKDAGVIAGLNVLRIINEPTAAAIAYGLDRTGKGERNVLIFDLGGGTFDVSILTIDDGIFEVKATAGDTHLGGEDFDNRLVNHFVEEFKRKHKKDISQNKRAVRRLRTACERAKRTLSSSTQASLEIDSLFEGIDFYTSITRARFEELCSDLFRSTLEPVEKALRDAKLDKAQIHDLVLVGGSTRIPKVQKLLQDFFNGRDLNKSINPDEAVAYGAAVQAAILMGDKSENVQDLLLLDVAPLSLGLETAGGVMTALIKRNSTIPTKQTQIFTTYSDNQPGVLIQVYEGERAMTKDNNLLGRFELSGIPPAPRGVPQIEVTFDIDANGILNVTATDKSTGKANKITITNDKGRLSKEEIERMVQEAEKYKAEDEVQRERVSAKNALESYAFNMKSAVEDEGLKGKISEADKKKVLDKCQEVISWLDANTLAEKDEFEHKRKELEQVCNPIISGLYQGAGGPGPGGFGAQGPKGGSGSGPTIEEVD

B1: mutated HSP110 lacking exon 9 (HSP110delE9), GFP-tagged (other)
chain: MSVVGLDVGSQSCYIAVARAGGIETIANEFSDRCTPSVISFGSKNRTIGVAAKNQQITHANNTVSNFKRFHGRAFNDPFIQKEKENLSYDLVPLKNGGVGIKVMYMGEEHLFSVEQITAMLLTKLKETAENSLKKPVTDCVISVPSFFTDAERRSVLDAAQIVGLNCLRLMNDMTAVALNYGIYKQDLPSLDEKPRIVVFVDMGHSAFQVSACAFNKGKLKVLGTAFDPFLGGKNFDEKLVEHFCAEFKTKYKLDAKSKIRALLRLYQECEKLKKLMSSNSTDLPLNIECFMNDKDVSGKMNRSQFEELCAELLQKIEVPLYSLLEQTHLKVEDVSAVEIVGGATRIPAVKERIAKFFGKDISTTLNADEAVARGCALQC
notes: Made by PCR from the GFP-HSP110 vector and cloned into the EGFp C2 vector; also called HSP110deIE9; HSP110ΔE9; not shown: GFP tag from the EGFp C2 vector into which the mutant HSP110 cDNA was cloned
  binding result: no binding
